Here are results for 5 molecules from patent publication US20110262358A1 (SAPPORO MEDICAL UNIVERSITY, published 2011).

Non-standard residues stand in square brackets, D forms with d. No end group written: not given here.

The target in this assay is T1, HLA-A24 molecule (HLA-A2402) expressed on T2-A24 cells (human).
T1 construct: whole, on cells; MHC class I molecule on T2-A24 cells
Put plainly: HLA-A24 stabilisation on T2A24 cells, flow cytometry with anti-HLA-A24 antibody.

As for MYTMVTPML [or7c1_277(9)], the binding result is “binds”.

On to TYAGCLSQIF (also called peptide 93(10)) [or7c1_93(10)], for which the binding result was “binds”.

For the molecule FYGTGFGVYL [or7c1_251(10)], the binding result is “binds”.

B1: or7c1_131(10) (peptide)
peptide: HYTV[code i]MNPQL
notes: Synthetic OR7C1-derived peptide, printed HYTViMNPQL with a lower-case i
Consider B1, for which the binding result was “binds”.

With MYLVTFTGNL [or7c1_34(10)], the binding result is recorded as “binds”.
